Assay results: paper PMC3440434, “Efficient Antifouling Surface for Quantitative Surface Plasmon Resonance Based Biosensor Analysis”

Tests used:
[1] = biological target: T1, PFV-1 IN (integrase) (PFV-1, UniProt P14350 752-1143); test: SPR imaging; 4 nM IN, monophasic; 5 uM dsDNA spots; ka 3.7e6 M-1s-1, kd 1.8e-3 s-1; text prints 4.9e-9 M but the rates give 4.9e-10; 10 mM MgCl2; 20 mM Hepes pH 8, 10 mM MgCl2, 100 mM NaCl, 25 ul/min; EG4-pretreated gold SPRi surface; temperature not given; conditions: protein: recombinant; label: none (immobilized on gold via 5' thiol); 5' overhang 5 nt (T5 spacer) on strand 1, other end blunt
[2] = biological target: T1, PFV-1 IN (integrase); test: SPR imaging; KD1, fast phase of two-phase fit; 200 nM IN; ka1 2.2e5 M-1s-1, kd1 5.8e-3 s-1; 10 mM MgCl2; 20 mM Hepes pH 8, 10 mM MgCl2, 100 mM NaCl, 25 ul/min; EG4-pretreated gold SPRi surface; temperature not given; conditions: protein: recombinant; label: none (immobilized on gold via 5' thiol); 5' overhang 5 nt (T5 spacer) on strand 1, other end blunt

B1: SH-5T-dsDNA (random 38 bp) (dsDNA)
DNA 1: TTTTTCTAAGCTAGAAGATTACTCCAAGTACATAATCTAAAAT
DNA 2: ATTTTAGATTATGTACTTGGAGTAATCTTCTAGCTTAG
modifications: 5' thiol-C6 on strand 1
With B1 the Kd [1] was 0.49 nM and the Kd [2] was 26 nM.
